Data on one molecule can be found in patent US20050181450A1, “Novel inositol 1,4,5-trisphosphate (IP3) receptor-binding protein and an IP3 indicator” (priority 2002, published 2005).

For data set [1], the target named is T1, GST-EL (mouse IP3R1 amino acids 1-2217) (Mus musculus, UniProt P11881, N1264K).
T1 construct: construct a GST-IP3R1 (1-2217) vector (termed GST-EL); made in house; host or cells: Sf9 cells (baculovirus)
The data set can be described thus: GST pulldown with GST-EL. Type of data set: binding. As for the experimental part: Mouse cerebellar cytosolic fraction was diluted 2-fold with 10 mM Hepes (pH 7.4), 200 mM NaCl, 2 mM EDTA, 1 mM 2-ME and 0.02% Triton X-100. The high salt extract was diluted 5-fold with 10 mM Hepes (pH 7.4), 2 mM EDTA, 1 mM 2-ME and 0.01% Triton X-100. The diluted fractions (the final NaCl concentration of both fractions was 100 mM) were incubated with 20 μg of GST-EL or GST for 2 hours at 4° C. After adding 10 μl of glutathione-Sepharose and another 2 hours of incubation, the resins were washed 5 times with a wash buffer (10 mM Hepes (pH 7.4), 100 mM NaCl, 2 mM EDTA, 1 mM 2-ME, and 0.01% Triton X-100), and bound proteins were eluted with 20 mM glutathione.
The eluted proteins were analyzed by Western blotting with anti-IRBIT antibody. For dephosphorylation, the diluted high salt extract was incubated in the presence of or the absence of Escherichia coli alkaline phosphatase (Toyobo) with 2 mM MgCl2 for 30 minutes at 37° C. 5 mM EDTA was added, and then the resultant was subjected to pulldown assay as described above.
For the determination of the IP3R1-interacting region of IRBIT, Cos-7 cells expressing GFP-tagged full-length IRBIT or its truncated mutants were lysed in a lysis buffer (10 mM Hepes (pH7.4), 100 mM NaCl, 2 mM EDTA, 1 mM 2-ME, 0.5% Nonidet P-40, and protease inhibitor) for 30 minutes at 4° C., followed by centrifugation (100,000×g, 30 minutes). The supernatants were subjected to pulldown assay with GST-EL or GST as described above, and bound proteins were subjected to immunoblot analysis with anti-GFP antibody (Medical & Biological Laboratories).

The next data set addresses T2, IP3R1 (Mus musculus, UniProt P11881, N1264K/P2675L).
T2 construct: from tissue; host or cells: mouse cerebellum, detergent extract of crude microsome
The data set can be described thus: Co-immunoprecipitation from mouse cerebellar crude microsome. The data set is classed as binding. The note with it: detergent extract of mouse cerebellar crude microsome. As for the experimental part: The detergent extract of mouse cerebellar crude microsome was immunoprecipitated with anti-IRBIT antibody or control antibody. The immunoprecipitates were subjected to SDS-PAGE followed by Western blotting with anti-IP3R1 antibody (upper panel) or anti-IRBIT (lower panel) antibody.
Detergent-solubilized extract from the crude microsome was prepared with 1% Nonidet P-40-containing 50 mM Hepes (pH 7.4), 1 mM MgCl2, and protease inhibitors for 30 minutes at 4° C., and centrifuged at 20,000×g for 30 minutes. The supernatant was diluted 10-fold in an immunoprecipitation buffer (10 mM Hepes (pH 7.4), 150 mM NaCl, 1 mM MgCl2, and 1% Nonidet P-40) and incubated with rabbit anti-IRBIT antibody (3 μg) or control rabbit IgG (3 μg) for 2 hours at 4° C. Protein G Sepharose 4 fast flow (Amersham Pharmacia Biotech) was added for reaction with immune complexes for 2 hours at 4° C. Resins were washed three times with an immunoprecipitation buffer and subjected to Western blotting with anti-IRBIT antibody or mouse anti-IP3R1 antibody KM1112 (47).

Data set [2] concerns the target T3, type II phosphatidylinositol phosphate kinase β (Homo sapiens, UniProt P78356).
T3 construct: expressed in transfected cells; host or cells: Cos-7
T3 sequence (P78356 1-416): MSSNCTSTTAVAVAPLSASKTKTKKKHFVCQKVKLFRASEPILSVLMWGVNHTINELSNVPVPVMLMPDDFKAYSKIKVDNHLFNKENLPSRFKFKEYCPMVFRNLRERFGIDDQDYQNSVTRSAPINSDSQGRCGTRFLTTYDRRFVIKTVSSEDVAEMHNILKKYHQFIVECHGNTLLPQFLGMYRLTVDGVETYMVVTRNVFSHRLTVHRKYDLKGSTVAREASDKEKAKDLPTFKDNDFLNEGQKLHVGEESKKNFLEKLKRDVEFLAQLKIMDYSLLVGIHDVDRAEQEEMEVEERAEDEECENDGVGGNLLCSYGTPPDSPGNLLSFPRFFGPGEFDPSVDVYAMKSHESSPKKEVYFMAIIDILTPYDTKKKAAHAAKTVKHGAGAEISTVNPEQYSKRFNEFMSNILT
The data set can be described thus: Co-immunoprecipitation in Cos-7 cells with Myc-PIPKII β. Type of data set: binding. The settings on record: overexpressing Cos-7 cells. As for the experimental part: (A and B) IRBIT was transfected into Cos-7 cells with Myc-tagged type II phosphatidylinositol phosphate kinase α, β or γ (PIPKII α, β or γ). After two days, cells were lysed in lysis buffer, followed by centrifugation (100,000×g, 30 min). The supernatants were incubated with 3 μg of anti-IRBIT antibody, rabbit IgG, mouse anti-Myc antibody, or mouse IgG for 1 h at 4° C. After adding 5 μl of Protein G beads and another 1-h incubation, the beads were washed five times with lysis buffer and analyzed by Western blotting with anti-IRBIT antibody or HRP conjugated anti-Myc antibody. Immunoprecipitation of Myc-PIPKII α, β or γ with anti-Myc antibody co-precipitated IRBIT (A). In the reciprocal experiments, immunoprecipitation of IRBIT with anti-IRBIT antibody precipitated Myc-PIPKII α, β or γ.
IRBIT was transfected into Cos-7 cells with Myc-tagged type II phosphatidylinositol phosphate kinase α, β or γ (PIPKII α, β or γ). After two days, cells were lysed in lysis buffer, followed by centrifugation (100,000×g, 30 min). The supernatants were incubated with 3 μg of anti-IRBIT antibody, rabbit IgG, mouse anti-Myc antibody, or mouse IgG for 1 h at 4° C. After adding 5 μl of Protein G beads and another 1-h incubation, the beads were washed five times with lysis buffer and analyzed by Western blotting with anti-IRBIT antibody or HRP conjugated anti-Myc antibody.

Data set [3] in a line: S-adenosylhomocysteine hydrolase activity in the hydrolytic direction. The note with it: recombinant protein expressed in Escherichia coli; hydrolysis direction. Type of data set: biochemical. How it is done:
The S-adenosylhomocysteine hydrolase activity in the hydrolytic direction of recombinant IRBIT-His (open circle), GST-IRBIT (triangle), GST (square), and S-adenosylhomocysteine hydrolase (closed circle) were measured according to the known method (43). Results are shown as the mean±standard deviation from three independent experimental results.
To assay S-adenosylhomocysteine hydrolase activity in the hydrolytic direction, the color developed by the reaction between the product (Homocysteine) and 5,5′-dithiobis (2-nitrobenzoic acid) (Sigma) was measured spectroscopically using the purified IRBIT-His (3.0 μg), GST-IRBIT (4.3 μg), GST (1.3 μg) and rabbit S-adenosylhomocysteine hydrolase (Sigma) (2.4 μg), according to the known method (43). Absorbance at 412 nm was measured 0, 5, 20 and 60 minutes later using a DU 640 spectrophotometer (Beckman). Results are shown as the mean±standard deviation from three independent experiments (FIG. 2).

T1 sequence (P11881 1-2217 N1264K): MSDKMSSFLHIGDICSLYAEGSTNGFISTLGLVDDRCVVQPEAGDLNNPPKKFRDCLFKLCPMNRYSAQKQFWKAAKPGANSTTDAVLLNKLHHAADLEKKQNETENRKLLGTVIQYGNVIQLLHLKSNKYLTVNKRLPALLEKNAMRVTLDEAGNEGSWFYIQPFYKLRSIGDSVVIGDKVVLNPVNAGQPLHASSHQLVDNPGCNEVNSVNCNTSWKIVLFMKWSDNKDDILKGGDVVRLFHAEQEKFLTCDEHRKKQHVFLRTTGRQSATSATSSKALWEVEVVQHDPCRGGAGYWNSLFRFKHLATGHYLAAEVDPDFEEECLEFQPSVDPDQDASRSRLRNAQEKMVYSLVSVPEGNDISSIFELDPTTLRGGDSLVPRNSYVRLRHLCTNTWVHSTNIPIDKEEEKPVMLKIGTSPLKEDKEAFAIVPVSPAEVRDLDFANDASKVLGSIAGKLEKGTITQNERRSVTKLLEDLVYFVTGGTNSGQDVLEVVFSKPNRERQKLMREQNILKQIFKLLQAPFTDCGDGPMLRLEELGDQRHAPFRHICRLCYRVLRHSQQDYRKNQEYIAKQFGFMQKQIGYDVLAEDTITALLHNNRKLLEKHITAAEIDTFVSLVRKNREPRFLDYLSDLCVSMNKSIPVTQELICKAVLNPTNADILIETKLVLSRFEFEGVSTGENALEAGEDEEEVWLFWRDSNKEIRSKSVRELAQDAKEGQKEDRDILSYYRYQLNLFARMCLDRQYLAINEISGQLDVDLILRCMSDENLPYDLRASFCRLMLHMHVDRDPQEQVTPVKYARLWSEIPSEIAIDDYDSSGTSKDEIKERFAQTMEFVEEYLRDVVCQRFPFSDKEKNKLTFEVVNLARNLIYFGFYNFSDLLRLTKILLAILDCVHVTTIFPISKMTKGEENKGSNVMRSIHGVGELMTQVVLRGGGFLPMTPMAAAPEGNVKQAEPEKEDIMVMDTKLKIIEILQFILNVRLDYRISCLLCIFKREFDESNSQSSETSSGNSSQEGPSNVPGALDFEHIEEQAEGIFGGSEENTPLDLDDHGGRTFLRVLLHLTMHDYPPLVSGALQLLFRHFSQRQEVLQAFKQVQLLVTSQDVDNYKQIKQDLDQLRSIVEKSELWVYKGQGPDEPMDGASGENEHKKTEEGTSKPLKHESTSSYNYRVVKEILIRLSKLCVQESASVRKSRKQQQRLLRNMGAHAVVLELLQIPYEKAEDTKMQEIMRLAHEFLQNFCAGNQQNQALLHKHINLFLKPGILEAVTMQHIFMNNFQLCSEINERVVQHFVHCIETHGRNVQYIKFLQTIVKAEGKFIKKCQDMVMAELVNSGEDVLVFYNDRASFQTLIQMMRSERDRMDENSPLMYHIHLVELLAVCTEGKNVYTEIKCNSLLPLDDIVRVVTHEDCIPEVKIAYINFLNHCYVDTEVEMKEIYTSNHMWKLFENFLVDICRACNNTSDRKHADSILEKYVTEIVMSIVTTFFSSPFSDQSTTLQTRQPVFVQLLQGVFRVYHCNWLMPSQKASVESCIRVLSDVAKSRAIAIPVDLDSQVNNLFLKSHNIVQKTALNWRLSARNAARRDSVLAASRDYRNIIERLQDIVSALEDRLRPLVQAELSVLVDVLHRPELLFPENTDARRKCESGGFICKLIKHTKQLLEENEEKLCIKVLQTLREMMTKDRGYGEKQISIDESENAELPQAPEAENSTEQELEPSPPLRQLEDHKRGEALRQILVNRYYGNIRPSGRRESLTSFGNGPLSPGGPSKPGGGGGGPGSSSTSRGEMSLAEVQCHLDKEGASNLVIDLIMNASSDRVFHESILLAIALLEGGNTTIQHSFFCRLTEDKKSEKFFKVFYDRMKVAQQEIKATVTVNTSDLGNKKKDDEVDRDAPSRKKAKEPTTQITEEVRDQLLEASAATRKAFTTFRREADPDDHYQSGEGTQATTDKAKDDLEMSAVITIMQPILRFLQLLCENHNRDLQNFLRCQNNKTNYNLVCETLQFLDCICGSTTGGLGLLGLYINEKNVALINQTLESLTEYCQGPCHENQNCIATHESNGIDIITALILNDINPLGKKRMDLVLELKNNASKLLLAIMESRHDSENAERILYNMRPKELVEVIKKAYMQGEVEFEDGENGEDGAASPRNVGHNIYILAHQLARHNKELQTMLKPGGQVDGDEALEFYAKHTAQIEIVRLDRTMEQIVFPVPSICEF
T2 sequence (P11881 whole entry N1264K/P2675L): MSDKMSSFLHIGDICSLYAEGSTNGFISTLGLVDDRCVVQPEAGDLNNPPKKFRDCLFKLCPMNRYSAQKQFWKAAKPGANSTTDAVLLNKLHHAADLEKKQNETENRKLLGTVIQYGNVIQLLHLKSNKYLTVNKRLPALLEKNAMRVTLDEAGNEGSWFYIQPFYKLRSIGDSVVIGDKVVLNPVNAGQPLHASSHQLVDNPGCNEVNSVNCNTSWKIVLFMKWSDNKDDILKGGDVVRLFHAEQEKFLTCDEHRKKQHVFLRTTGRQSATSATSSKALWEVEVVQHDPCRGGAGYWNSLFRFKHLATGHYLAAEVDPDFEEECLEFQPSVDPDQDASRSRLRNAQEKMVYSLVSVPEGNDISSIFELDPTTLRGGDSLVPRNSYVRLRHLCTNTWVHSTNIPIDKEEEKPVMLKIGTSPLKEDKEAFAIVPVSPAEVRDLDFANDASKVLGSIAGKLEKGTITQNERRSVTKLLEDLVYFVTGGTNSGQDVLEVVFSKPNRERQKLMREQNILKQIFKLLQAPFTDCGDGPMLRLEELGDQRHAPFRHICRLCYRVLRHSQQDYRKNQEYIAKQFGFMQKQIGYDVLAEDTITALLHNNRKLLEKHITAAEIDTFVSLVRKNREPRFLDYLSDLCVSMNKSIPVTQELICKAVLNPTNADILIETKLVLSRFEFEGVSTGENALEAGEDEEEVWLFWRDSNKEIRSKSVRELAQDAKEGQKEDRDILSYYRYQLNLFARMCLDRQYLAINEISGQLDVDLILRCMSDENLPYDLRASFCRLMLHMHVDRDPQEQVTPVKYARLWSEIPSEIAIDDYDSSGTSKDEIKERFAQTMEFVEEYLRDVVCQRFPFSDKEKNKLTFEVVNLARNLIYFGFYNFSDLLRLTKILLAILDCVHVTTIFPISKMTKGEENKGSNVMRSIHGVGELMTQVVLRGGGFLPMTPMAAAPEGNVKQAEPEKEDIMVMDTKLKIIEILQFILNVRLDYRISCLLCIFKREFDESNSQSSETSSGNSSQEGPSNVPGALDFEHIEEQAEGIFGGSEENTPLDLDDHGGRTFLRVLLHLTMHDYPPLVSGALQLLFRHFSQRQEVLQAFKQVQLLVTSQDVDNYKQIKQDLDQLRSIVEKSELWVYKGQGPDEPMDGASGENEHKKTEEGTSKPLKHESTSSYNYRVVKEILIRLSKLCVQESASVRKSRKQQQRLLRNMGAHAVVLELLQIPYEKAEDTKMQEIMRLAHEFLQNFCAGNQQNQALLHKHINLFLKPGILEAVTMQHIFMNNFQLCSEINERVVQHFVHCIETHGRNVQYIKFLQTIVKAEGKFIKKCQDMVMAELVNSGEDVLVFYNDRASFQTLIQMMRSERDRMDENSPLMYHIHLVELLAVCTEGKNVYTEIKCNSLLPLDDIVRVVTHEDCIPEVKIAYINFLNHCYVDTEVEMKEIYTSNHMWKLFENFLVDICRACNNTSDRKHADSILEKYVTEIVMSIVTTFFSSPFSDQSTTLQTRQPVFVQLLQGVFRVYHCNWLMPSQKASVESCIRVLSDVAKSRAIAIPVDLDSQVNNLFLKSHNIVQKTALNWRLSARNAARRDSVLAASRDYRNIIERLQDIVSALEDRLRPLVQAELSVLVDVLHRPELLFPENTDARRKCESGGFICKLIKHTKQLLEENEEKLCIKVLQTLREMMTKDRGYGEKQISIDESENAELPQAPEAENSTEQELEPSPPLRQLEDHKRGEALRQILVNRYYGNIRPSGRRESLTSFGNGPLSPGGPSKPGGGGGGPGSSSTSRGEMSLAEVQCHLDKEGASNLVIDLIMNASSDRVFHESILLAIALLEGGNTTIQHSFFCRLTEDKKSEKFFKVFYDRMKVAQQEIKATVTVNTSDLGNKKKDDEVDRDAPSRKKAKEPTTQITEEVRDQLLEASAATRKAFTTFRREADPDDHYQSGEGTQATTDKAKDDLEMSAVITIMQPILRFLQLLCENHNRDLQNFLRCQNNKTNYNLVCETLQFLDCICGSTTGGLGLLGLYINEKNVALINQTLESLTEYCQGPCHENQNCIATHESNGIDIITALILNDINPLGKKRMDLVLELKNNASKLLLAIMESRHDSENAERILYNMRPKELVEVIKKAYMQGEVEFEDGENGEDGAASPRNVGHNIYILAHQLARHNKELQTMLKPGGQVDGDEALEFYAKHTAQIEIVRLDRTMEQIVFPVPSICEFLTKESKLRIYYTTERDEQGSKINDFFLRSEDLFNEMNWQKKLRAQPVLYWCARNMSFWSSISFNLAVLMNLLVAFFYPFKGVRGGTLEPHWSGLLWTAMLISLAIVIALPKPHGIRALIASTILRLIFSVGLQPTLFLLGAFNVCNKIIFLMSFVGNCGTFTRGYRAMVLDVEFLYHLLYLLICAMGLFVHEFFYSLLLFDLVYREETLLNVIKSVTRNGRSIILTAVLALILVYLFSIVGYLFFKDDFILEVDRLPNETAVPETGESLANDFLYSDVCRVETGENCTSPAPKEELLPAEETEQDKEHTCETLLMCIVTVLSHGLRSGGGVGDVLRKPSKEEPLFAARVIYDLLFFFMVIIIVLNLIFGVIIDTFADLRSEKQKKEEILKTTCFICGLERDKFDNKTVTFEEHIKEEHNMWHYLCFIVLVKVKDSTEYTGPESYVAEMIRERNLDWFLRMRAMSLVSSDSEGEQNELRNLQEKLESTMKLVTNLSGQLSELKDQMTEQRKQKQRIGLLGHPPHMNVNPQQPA

B1: IRBIT: novel IP3 receptor-binding protein of 530 amino acids, SEQ ID NO: 1 (protein, listed as Mus musculus)
chain: MSMPDAMPLPGVGEELKQAKEIEDAEKYSFMATVTKAPKKQIQFADDMQEFTKFPTKTGRRSLSRSISQSSTDSYSSAASYTDSSDDEVSPREKQQTNSKGSSNFCVKNIKQAEFGRREIEIAEQDMSALISLRKRAQGEKPLAGAKIVGCTHITAQTAVLIETLCALGAQCRWSACNIYSTQNEVAAALAEAGVAVFAWKGESEDDFWWCIDRCVNMDGWQANMILDDGGDLTHWVYKKYPNVFKKIRGIVEESVTGVHRLYQLSKAGKLCVPAMNVNDSVTKQKFDNLYCCRESILDGLKRTTDVMFGGKQVVVCGYGEVGKGCCAALKALGAIVYITEIDPICALQACMDGFRVVKLNEVIRQVDVVITCTGNKNVVTREHLDRMKNSCIVCNMGHSNTEIDVTSLRTPELTWERVRSQVDHVIWPDGKRVVLLAEGRLLNLSCSTVPTFVLSITATTQALALIELYNAPEGRYKQDVYLLPKKMDEYVASLHLPSFDAHLTELTDDQAKYLGLNKNGPFKPNYYRY
Turning to B1, the “interaction with GST-EL” value in data set [1] (IRBIT in high salt extract of mouse cerebellar crude microsome) is on record as “interacted with GST-EL”; in data set [1] (IRBIT in mouse cerebellar cytosolic fraction), “did not interact with GST-EL”; in data set [1] (high salt extract treated with alkaline phosphatase), “did not interact with GST-EL”. For the same molecule, the “co-immunoprecipitation of IP3R1 with anti-IRBIT antibody” value in the data set with IP3R1 was “co-immunoprecipitated”. Further, the “interaction with PIPKII β” value in data set [2] is listed as “interacted”. Further, the S-adenosylhomocysteine hydrolase activity entry in data set [3] is reported as “no S-adenosylhomocysteine hydrolase activity”.
